Measured values from PMC12139721.

Target: CUL5-RBX2 (human | mouse) (UniProt Q93034)
Experiment: SEC + native MS

Chain of UniProt Q93034 (Q93034 whole entry, chain 1 of 2): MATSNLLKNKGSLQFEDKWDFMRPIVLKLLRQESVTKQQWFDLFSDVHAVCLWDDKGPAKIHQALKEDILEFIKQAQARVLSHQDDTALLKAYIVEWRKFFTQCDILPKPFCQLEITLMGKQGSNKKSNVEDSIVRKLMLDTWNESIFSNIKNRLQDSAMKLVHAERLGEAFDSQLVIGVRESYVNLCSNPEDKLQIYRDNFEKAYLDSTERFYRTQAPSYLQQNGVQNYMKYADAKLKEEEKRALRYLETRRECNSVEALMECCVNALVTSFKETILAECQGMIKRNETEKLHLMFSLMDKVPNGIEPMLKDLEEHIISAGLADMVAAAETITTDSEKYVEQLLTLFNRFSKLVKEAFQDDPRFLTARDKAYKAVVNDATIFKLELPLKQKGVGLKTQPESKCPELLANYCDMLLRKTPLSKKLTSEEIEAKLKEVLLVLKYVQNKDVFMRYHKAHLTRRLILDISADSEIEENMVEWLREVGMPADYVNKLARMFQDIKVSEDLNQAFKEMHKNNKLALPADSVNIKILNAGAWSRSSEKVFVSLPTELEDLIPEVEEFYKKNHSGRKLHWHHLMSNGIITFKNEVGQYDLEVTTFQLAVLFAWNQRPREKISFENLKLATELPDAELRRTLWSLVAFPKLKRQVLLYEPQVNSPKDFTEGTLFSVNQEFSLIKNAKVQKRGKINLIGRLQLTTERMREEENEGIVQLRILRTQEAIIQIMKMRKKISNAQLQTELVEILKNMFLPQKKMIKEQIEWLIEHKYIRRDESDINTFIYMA
Chain of UniProt Q93034 (Q9WTZ1 whole entry, chain 2 of 2, further chain): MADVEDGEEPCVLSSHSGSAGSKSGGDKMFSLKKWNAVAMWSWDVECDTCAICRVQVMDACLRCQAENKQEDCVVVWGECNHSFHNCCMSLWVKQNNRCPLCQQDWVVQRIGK

PCMTD1-ELOBC (from UniProt Q96MG8;Q15370;Q15369) (complex)
stoichiometry N: 1
